Test results published in US20090022669A1, “COMPOSITIONS FOR PROTEIN DELIVERY VIA THE PULMONARY ROUTE” (VAPOTRONICS, INC., priority 2001, published 2009).

Legend:
[1] = Molecular assays (HPLC, mass spectrometry, isoelectric focusing, immunoassay) of recovered aerosol versus initial formulation; format: physicochemical
Text: During testing, it was useful to ensure that the composition of the aerosol emanating from the device was the same in all discernable aspects as the formulation filled into the device.

[2] = Droplet size of the thermal inkjet aerosol measured by Malvern laser; format: physicochemical; settings: hGH 2 mg/mL, 6% w/w PEG 3000, 0.1% w/v TWEEN 20, unbuffered
[3] = tested on: receptors introduced to the cells specific to the test protein; experiment: Transgenic cell bioassay of recovered aerosol versus formulation before aerosolization; format: cell-based; settings: hGH 2 mg/mL, 6% w/w PEG 3000, 0.1% w/v TWEEN 20; thermal inkjet, aerosol condensed and recovered; FIG. 1
Method: Proteins were tested with a transgenic cell bioassays with receptors introduced to the cells specific to the test protein. These bioassays were appropriate for indicating the functional effectiveness of the protein. Molecular assays were performed to indicate the primary or tertiary structure of the molecule. Assays used included size exclusion high performance liquid chromatography, reverse phase high performance liquid chromatography, mass spectrometry, isoelectric focusing and immunoassay.
Each protein was formulated at a concentration that was calculated to be of clinical significance such that the plume of aerosol contained the required amount of therapeutic. Humectant was added to the protein formulation which was filled into an inkjet cartridge and fired from the cartridge.
Resistor surfaces and nozzles were inspected by Scanning Electron Microscopy to establish the cleanliness of the surfaces and subsequently the effectiveness of the humectant and surfactant. When humectant and surfactant concentrations were suitable, the aerosol from the device was collected, analyzed, and compared with the solution before aerosolization.
Human growth hormone (hGH) was formulated at 2 mg/mL with 6% w/w PEG 3000 and 0.1% w/v TWEEN® 20. The formulation was unbuffered and no additional salts were added to the formulation. […]

**Q.** Which “reverse-phase HPLC comparison (retention time, peak shape) before, after recovered and after repeated aerosolization” value ([1]; insulin 10 mg/mL, 6% w/v PEG 8000, 0.1% w/v TWEEN 80, thermal inkjet, FIG. 2) does the source give for Insulin here?
**A.** The value was “no measurable differences”.

**Q.** For `CN1CCCC1c1cccnc1` (centres unmarked) [Nicotine, reference compound], which “comparison of solution during or after dosage (aerosolization)” value ([1]; nicotine up to 50% w/w in water with 0.1% w/v TWEEN 20) is on record?
**A.** The value was “no measurable difference”.

**Q.** Which results are given for Human growth hormone?
**A.** HPLC comparison of formulation before and after aerosolization ([1]; hGH 2 mg/mL, 6% w/w PEG 3000, 0.1% w/v TWEEN 20, thermal inkjet, aerosol condensed and recovered): no measurable difference; average droplet size of formulation aerosol [2]: 8 μm; bioassay comparison of formulation before and after aerosolization [3]: no measurable difference
